Positions count from the first letter of the chain named. Like-named read-outs stand apart in the source and are kept apart here.
B1: GPRC5D×CD3 bispecific antibody hz5E12.1-P1/SP34.24 (bispecific antibody, V domains shown)
VH 1: QVQLVQSGAEVKKPGASVKVSCKASGYTFIGYVMHWVRQAPGQGLEWMGYINPYNDVSQHQGKFKGRVTMTSDTSTSTVYMELSSLRSEDTAVYYCAREGRLGLRVLAYWGQGTLVTVSS
VL 1: DIVMTQSPDSLAVSLGERATINCRASESVDSYGITFMNWYQQKPGQPPKLLIYAASNQGSGVPDRFSGSGSGTDFTLTISSLQAEDVAVYYCQQSKEVPWTFGQGTKLEIK
VH 2: EVQLVESGGGLVQPGGSLKLSCAASGFTFNTYAMNWVRQASGKGLEWVGRIRSKYNNYATYYADSVKDRFTISRDDSKSTLYLQMNSLKTEDTAVYYCARHGNFGQSYVSWFAYWGQGTTVTVSS
VL 2: QAVVTQEPSLTVSPGGTVTLTCRSSTGAVTTSNYANWVQQKPGQAPRGLIGGTNKRAPGVPARFSGSLLGDKAALTLLGAQPEDEAEYYCALWYSNLWVFGQGTKLTVL
B2: GPRC5D×CD3 bispecific antibody hz5E12.1-P1/SP34.87 (bispecific antibody, V domains shown)
VH 1: B1 VH 1
VL 1: B1 VL 1
VH 2: B1 VH 2 with G102Y
VL 2: B1 VL 2
B3: ch5E12C4 (antibody, V domains shown)
VH: EVQLQQSGPELVKPGASVKMSCKASGYTFIGYVMHWVKRKPGQGLEWIGYINPYNDVSQHNGKFKGKATLTSDKSSSTAYMELSSLTSEDSAVYYCAREGRLGLRVLAYWGQGTLVTVSA
VL: not shown
B4: ch11B7 (antibody, V domains shown)
VH: EVQLQQSVAELARPGASVKMSCKASGYTFTTYTMHWVKQRPGQGLEWIGFIIPSSGYTSYNQNFKDKVTLTADKSSSTAYMQLSSLTSEDSAVYFCTGGQARAYYPLDYWGQGTSVTVSS
VL: DIVMTQSPAILSVSPGERVSFSCRASQSIGTTIHWYQQRSNGSPRLLIKYASESISGIPSRFSGSGSGTYFTLSINSVESEDIADYFCQQSYNWPRTFGGGTKLEIK
B5: BCMA×CD3 bispecific antibody 46758 (bispecific antibody, human IgG1, kappa, L234A L235A)
chain 1: not shown
chain 2: not shown
chain 3: DIVMTQSPDSLAVSLGERATINCKSSQSLLNARTGKNYLAWYQQKPGQPPKLLIYWASTRESGVPDRFSGSGSGTDFTLTISSLQAEDVAVYYCKQSYSRRTFGCGTKVEIKGGGGSGGGGSGGGGSGGGGSQVQLVQSGAEVKKPGASVKVSCKASGFNIKDYYMHWVRQAPGQCLEWMGWIDLENANTVYNAKFQGRVTITRDTSASTAYMELSSLRSEDTAVYYCARDAYGRYFYDVWGQGTLVTVSSGSEPKSSDKTHTCPPCPAPEAAGGPSVFLFPPKPKDTLMISRTPEVTCVVVDVSHEDPEVKFNWYVDGVEVHNAKTKPREEQYNSTYRVVSVLTVLHQDWLNGKEYKCKVSNKALPAPIEKTISKAKGQPREPQVCTLPPSRDELTKNQVSLSCAVKGFYPSDIAVEWESNGQPENNYKTTPPVLDSDGSFFLVSKLTVDKSRWQQGNVFSCSVMHEALHNHYTQKSLSLSPGK

Experiments:
[1] = target: T1, CD3E on the surface of Jurkat-NFAT-Luc cells (UniProt P07766 23-207); test: cell-based or functional assay
[2] = target: T1, CD3E on the surface of Jurkat-NFAT-Luc …; test: cell-based or functional assay; remark: listed apart in the source
[3] = target: T1, CD3E on the surface of Jurkat-NFAT-Luc …; test: cell-based or functional assay; remark: listed apart in the source
Human CD3D&E-Bio = target: T2, Human CD3D&E-Bio (human, UniProt P07766 23-126; P04234 22-105, biotin-labeled (site not stated)); test: BLI (Octet Red96e), SA or AHC sensors, 1:1 fit
T2 construct: Bought heterodimer antigen; also called human CD3D&E heterodimer antigen (ACRO Biosystems); human CD3E
Method: (§1) Sensors (Fortebio, Cat #18-5019) coupled to streptavidin protein (SA) or anti-human-Fc (AHC) were pre-wetted by immersion in 200 μL of SD buffer (1×PBS, 0.1% BSA, 0.05% tween-20). Exemplary antibodies and biotin-labeled or Fc-tagged BCMA and CD3D&E heterodimer antigens were diluted with SD buffer, respectively. 200 μL of SD buffer and diluted samples (100 nM) were taken and added to a 96-well black plate (Greiner, Cat #655209), respectively. The sensors and the samples were placed in Octet (Fortebio, Red96e). Data Acquisition 10.0 was executed and “New Kinetic Experiment” was selected. The sensors were arranged according to the positions of the samples, and the operation procedures and times were set as: Baseline 60 s, Loading 250 s, Baseline 100 s, Association 600 s and Dissociation 600 s. The experiment was conducted at a rotation speed of 1000 rpm and 30° C.
(§2) The results were analyzed in “Data Analysis 10.0” software, with the buffer reference channel being subtracted. 1:1 binding was selected to fit the data, and kₒₙ, koff, and KD values for the exemplary antibodies were calculated.
(§3) In experiments performed according to the above-mentioned assay, the affinities of the exemplary antibodies were detected using a human CD3D&E heterodimer antigen (ACRO Biosystems) and a monkey CD3D&E heterodimer antigen (ACRO Biosystems). The binding affinities of GPRC5D×CD3 bispecific antibodies hz5E12.1-P1/SP34.24 and hz5E12.1-P1/SP34.87 to human/monkey CD3D&E were also detected.

Cyno CD3D&E-Bio = target: T3, Cyno CD3D&E-Bio (monkey (cyno), UniProt Q95LI5 22-117; Q95LI8 22-105, biotin-labeled (site not stated)); test: BLI (Octet Red96e), SA or AHC sensors, 1:1 fit
T3 construct: Bought heterodimer antigen; also called monkey CD3D&E heterodimer antigen (ACRO Biosystems); monkey CD3E
Method: as §1, §2, §3

human GPRC5D [4] = target: T4, human GPRC5D (human, UniProt Q9NZD1 1-345); test: flow cytometry on H929 cells
T4 construct: whole, on cells; also called huGPRC5D; G protein-coupled receptor family C group 5 member D
Method: (§4) The affinity of the anti-GPRC5D antibody was detected by flow cytometry. Antibodies at various concentrations were co-incubated with cells expressing human GPRC5D, including GS-CHO cells overexpressing human GPRC5D (huGPRC5D GS-CHO), multiple myeloma cells MM1.R, H929 and AMO-1, for 30 min. A fluorescently-labeled secondary antibody (APC-mouse anti-human IgG Fc antibody, Biolegend, Cat #409306) was then added, the cell fluorescence intensity was detected using a Live/Dead yellow dead cell stain (Thermo Fisher, Cat #L34967) by flow cytometry, a curve was fitted using GraphPad Prism 8.0, and the EC50 value was calculated to show the binding affinity of the antibody to human GPRC5D.
(§5) Among the antibodies detected, HB15H1G1 (the heavy chain variable region of SEQ ID NO: 25, and the light chain variable region of SEQ ID NO: 26) was a fully human antibody, and ch5E12C4 (the heavy chain variable region of SEQ ID NO: 98, and the light chain variable region of SEQ ID NO: 99), ch11B7 (the heavy chain variable region of SEQ ID NO: 100, and the light chain variable region of SEQ ID NO: 101) and ch7F5D4 antibodies (the heavy chain variable region of SEQ ID NO: 27, and the light chain variable region of SEQ ID NO: 28) were chimeric antibodies.

human GPRC5D [5] = target: T4, human GPRC5D; test: flow cytometry on AMO-1 cells
Method: as §4, §5

human GPRC5D [6] = target: T4, human GPRC5D; test: flow cytometry on MM1.R cells
Method: as §4, §5

human GPRC5D [7] = target: T4, human GPRC5D; test: flow cytometry on huGPRC5D-GS-CHO cells
Method: as §4, §5

[8] = target: T1, CD3E on the surface of Jurkat-NFAT-Luc …; test: cell-based or functional assay; remark: listed apart in the source
[9] = target: T1, CD3E on the surface of Jurkat-NFAT-Luc …; test: cell-based or functional assay; remark: listed apart in the source

T1 sequence (P07766 23-207): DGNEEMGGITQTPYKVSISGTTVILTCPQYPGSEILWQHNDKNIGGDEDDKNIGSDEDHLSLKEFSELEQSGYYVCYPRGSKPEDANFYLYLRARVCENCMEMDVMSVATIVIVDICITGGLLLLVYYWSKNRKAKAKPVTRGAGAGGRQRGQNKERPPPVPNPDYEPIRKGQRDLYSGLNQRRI
T4 sequence (Q9NZD1 whole entry): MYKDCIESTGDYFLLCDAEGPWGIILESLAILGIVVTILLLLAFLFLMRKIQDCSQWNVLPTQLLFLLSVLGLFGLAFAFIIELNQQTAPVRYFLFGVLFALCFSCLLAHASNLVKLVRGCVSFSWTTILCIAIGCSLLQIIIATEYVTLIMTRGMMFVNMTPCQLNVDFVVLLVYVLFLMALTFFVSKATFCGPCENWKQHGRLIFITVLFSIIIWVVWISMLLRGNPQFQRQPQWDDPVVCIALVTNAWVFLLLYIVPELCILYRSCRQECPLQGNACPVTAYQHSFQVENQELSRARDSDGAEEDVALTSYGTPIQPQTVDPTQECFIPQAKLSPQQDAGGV
T3 sequence (Q95LI5 22-117 limits assumed, chain 1 of 2): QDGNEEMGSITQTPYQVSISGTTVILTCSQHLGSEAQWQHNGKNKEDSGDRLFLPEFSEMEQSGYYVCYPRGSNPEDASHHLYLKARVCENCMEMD
T3 sequence (Q95LI8 22-105 limits assumed, chain 2 of 2): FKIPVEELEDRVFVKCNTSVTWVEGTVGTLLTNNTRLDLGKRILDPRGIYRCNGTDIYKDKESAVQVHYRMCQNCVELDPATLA
T2 sequence (P07766 23-126 limits assumed, chain 1 of 2): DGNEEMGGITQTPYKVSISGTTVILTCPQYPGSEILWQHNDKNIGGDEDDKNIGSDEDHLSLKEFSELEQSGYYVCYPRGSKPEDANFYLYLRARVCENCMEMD
T2 sequence (P04234 22-105 limits assumed, chain 2 of 2): as the sequence (Q95LI8 22-105 limits assumed, chain 2 of 2) above, with V5I, K15N, V20I, T32S, N33D, N34I, A64T, N74S, L83V counted along it

Binder | EC50 of Jurkat-NFAT-Luc luciferase activation; tumor cells 8226 [1] | EC50 of Jurkat-NFAT-Luc luciferase activation; tumor cells H929 [1] | EC50 of Jurkat-NFAT-Luc luciferase activation; tumor cells L363 [1] | EC50 of Jurkat-NFAT-Luc luciferase activation; tumor cells U266 [1] | EC50 of Jurkat-NFAT-Luc luciferase activation; tumor cells ARD [2] | EC50 of Jurkat-NFAT-Luc luciferase activation; tumor cells MM.1S [2] | EC50 of Jurkat-NFAT-Luc luciferase activation; tumor cells 8226 [3] | EC50 of Jurkat-NFAT-Luc luciferase activation; tumor cells H929 [3] | EC50 of Jurkat-NFAT-Luc luciferase activation; tumor cells L363 [3] | EC50 of Jurkat-NFAT-Luc luciferase activation; tumor cells U266 [3] | Kd (Human CD3D&E-Bio) | koff (Human CD3D&E-Bio) | kon (Human CD3D&E-Bio) | Kd (Cyno CD3D&E-Bio) | koff (Cyno CD3D&E-Bio) | kon (Cyno CD3D&E-Bio) | EC50 (human GPRC5D [4]) | EC50 (human GPRC5D [7]) | further results
B1 | 0.00318 nM | 0.00656 nM | 0.00559 nM | 0.0057 nM | 0.00273 nM | 0.00225 nM | 0.00318 nM | 0.00656 nM | 0.00559 nM | 0.0057 nM | 21.4 nM | 0.00335 s⁻¹ | 156000 M⁻¹ s⁻¹ | 26 nM | 0.00319 s⁻¹ | 123000 M⁻¹ s⁻¹ | – | – | –
B2 | 0.0201 nM | 0.0453 nM | 0.0389 nM | 0.145 nM | 0.0149 nM | 0.0183 nM | – | – | – | – | 285 nM | 0.0176 s⁻¹ | 61900 M⁻¹ s⁻¹ | 290 nM | 0.0169 s⁻¹ | 58300 M⁻¹ s⁻¹ | – | – | –
B3 | – | – | – | – | – | – | – | – | – | – | – | – | – | – | – | – | 21.7 nM | 9.18 nM | EC50 (human GPRC5D [5]): 100 nM; EC50 (human GPRC5D [6]): 3.7 nM
B4 | – | – | – | – | – | – | – | – | – | – | – | – | – | – | – | – | 5.99 nM | 1.14 nM | –
B5 | 0.0798 nM | 0.0835 nM | 0.0901 nM | 0.603 nM | 0.133 nM | 0.159 nM | 0.0798 nM | 0.0835 nM | 0.0901 nM | 0.603 nM | – | – | – | – | – | – | – | – | EC50 of Jurkat-NFAT-Luc luciferase activation; tumor cells H929 [8]: 0.07 nM; EC50 of Jurkat-NFAT-Luc luciferase activation; tumor cells L363 [8]: 0.43 nM; EC50 of Jurkat-NFAT-Luc luciferase activation; target cells huGPRC5D-GS-CHO [9]: 0.0059 nM; EC50 of Jurkat-NFAT-Luc luciferase activation; tumor cells H929 [9]: 0.344 nM; EC50 of Jurkat-NFAT-Luc luciferase activation; tumor cells L363 [9]: 0.192 nM; EC50 of Jurkat-NFAT-Luc luciferase activation; tumor cells U266 [9]: 0.0311 nM

Reference: patent US20250074996A1 (Innovent, published 2025)
